Measurements reported in article doi:10.1101/2020.05.14.097071.
Like-named read-outs stand apart in the source and are kept apart here.

What was measured:
[1] = target: monomeric RAD51 (HumRadA22); test: fluorescence polarisation
[2] = target: monomeric RAD51 (HumRadA22)
[3] = target: monomeric RAD51 (HumRadA22); test: ITC

| Kd [1] [nM] | Kd [2] [nM] | Kd [3] [nM] | Substance |
| --- | --- | --- | --- |
| 11000 | – | – | GB1-BRC7-8 (peptide) |
| – | – | 5 | BRC8-2(S2056A) (peptide) |

Further lines, the substance ahead of its results:

| Substance | Kd [1] [nM] | Kd [2] [nM] | Kd [3] [nM] |
| --- | --- | --- | --- |
| GB1-BRC4-5 (peptide) | 2100 | – | – |
| BRC4 with deletion of Lys1530 (peptide) | – | 4100 | – |
| GB1-BRC4 (peptide) | 38 | 21 | 11 |
